From publication PMC11077047, “Activation of zinc uptake regulator by zinc binding to three regulatory sites”

Key:
[1] = molecular target: T1, Zur H36A H36A (Streptomyces coelicolor) (UniProt Q9L2H5); experiment: DNase I footprinting; conditions: ITC: 20 mM HEPES pH 7.8, 150 mM NaCl, 0.5 mM TCEP, 25 C. EMSA: 20 mM Tris-HCl pH 7.8, 150 mM NaCl, 5 mM DTT, 0.1 mg/ml BSA, 5% glycerol, 0.1 ug poly(dI-dC) per …
T1 sequence: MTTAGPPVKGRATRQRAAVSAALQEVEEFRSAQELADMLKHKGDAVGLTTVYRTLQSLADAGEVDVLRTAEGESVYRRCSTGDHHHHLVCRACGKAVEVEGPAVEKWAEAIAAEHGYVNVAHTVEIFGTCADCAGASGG

[2] = molecular target: T2, Zur (ScZur) wild type (Streptomyces coelicolor) (UniProt Q9L2H5); experiment: DNase I footprinting; conditions: ITC: 20 mM HEPES pH 7.8, 150 mM NaCl, 0.5 mM TCEP, 25 C. EMSA: 20 mM Tris-HCl pH 7.8, 150 mM NaCl, 5 mM DTT, 0.1 mg/ml BSA, 5% glycerol, 0.1 ug poly(dI-dC) per …
T2 sequence: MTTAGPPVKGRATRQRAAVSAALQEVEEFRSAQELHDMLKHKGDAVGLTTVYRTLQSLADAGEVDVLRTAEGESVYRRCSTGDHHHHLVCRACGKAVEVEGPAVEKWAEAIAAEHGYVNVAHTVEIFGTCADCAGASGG

[3] = molecular target: T3, Zur (ScZur) wild type (Streptomyces coelicolor, UniProt Q9L2H5 1-139); experiment: EMSA; 400 nM Zur, 0-5 uM zinc; saturating state switched (hexamer); ITC: 20 mM HEPES pH 7.8, 150 mM NaCl, 0.5 mM TCEP, 25 C. EMSA: 20 mM Tris-HCl pH 7.8, 150 mM NaCl, 5 mM DTT, 0.1 mg/ml BSA, 5% glycerol, 0.1 ug poly(dI-dC) per; conditions: protein: recombinant; chain copies: 2; label: 6-FAM; blunt
T3 sequence: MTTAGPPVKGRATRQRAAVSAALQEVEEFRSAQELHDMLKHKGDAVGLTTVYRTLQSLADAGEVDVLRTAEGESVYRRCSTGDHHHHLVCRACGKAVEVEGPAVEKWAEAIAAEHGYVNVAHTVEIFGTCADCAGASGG

[4] = molecular target: T3, Zur (ScZur) wild type; experiment: ITC; 4.0 eq Zn2+ per Zur dimer; N=2.1 dimers per DNA; K=8.7e5 M-1; ITC: 20 mM HEPES pH 7.8, 150 mM NaCl, 0.5 mM TCEP, 25 C. EMSA: 20 mM Tris-HCl pH 7.8, 150 mM NaCl, 5 mM DTT, 0.1 mg/ml BSA, 5% glycerol, 0.1 ug poly(dI-dC) per; conditions: protein: recombinant; chain copies: 2; label: 6-FAM in EMSA; blunt
[5] = molecular target: T4, Zur H36A (Streptomyces coelicolor, UniProt Q9L2H5 1-139, H36A); experiment: ITC; 4.0 eq Zn2+ per Zur dimer; N=2.0 dimers per DNA; K=3.3e5 M-1; ITC: 20 mM HEPES pH 7.8, 150 mM NaCl, 0.5 mM TCEP, 25 C. EMSA: 20 mM Tris-HCl pH 7.8, 150 mM NaCl, 5 mM DTT, 0.1 mg/ml BSA, 5% glycerol, 0.1 ug poly(dI-dC) per; conditions: protein: recombinant; chain copies: 2; label: 6-FAM in EMSA; blunt
T4 sequence: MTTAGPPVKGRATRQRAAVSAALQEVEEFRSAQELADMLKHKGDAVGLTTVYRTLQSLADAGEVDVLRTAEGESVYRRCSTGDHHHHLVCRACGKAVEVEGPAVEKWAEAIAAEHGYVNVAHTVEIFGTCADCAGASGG

[6] = molecular target: T3, Zur (ScZur) wild type; experiment: EMSA; 400 nM Zur, 0-5 uM zinc; saturating state switched (tetramer); ITC: 20 mM HEPES pH 7.8, 150 mM NaCl, 0.5 mM TCEP, 25 C. EMSA: 20 mM Tris-HCl pH 7.8, 150 mM NaCl, 5 mM DTT, 0.1 mg/ml BSA, 5% glycerol, 0.1 ug poly(dI-dC) per; conditions: protein: recombinant; chain copies: 2; label: 6-FAM; blunt
[7] = molecular target: T3, Zur (ScZur) wild type; experiment: ITC; 4.0 eq Zn2+ per Zur dimer; N=3.1 dimers per DNA; K=1.8e6 M-1; ITC: 20 mM HEPES pH 7.8, 150 mM NaCl, 0.5 mM TCEP, 25 C. EMSA: 20 mM Tris-HCl pH 7.8, 150 mM NaCl, 5 mM DTT, 0.1 mg/ml BSA, 5% glycerol, 0.1 ug poly(dI-dC) per; conditions: protein: recombinant; chain copies: 2; label: 6-FAM in EMSA; blunt
[8] = molecular target: T4, Zur H36A; experiment: ITC; 4.0 eq Zn2+ per Zur dimer; N=3.1 dimers per DNA; K=2.6e5 M-1; ITC: 20 mM HEPES pH 7.8, 150 mM NaCl, 0.5 mM TCEP, 25 C. EMSA: 20 mM Tris-HCl pH 7.8, 150 mM NaCl, 5 mM DTT, 0.1 mg/ml BSA, 5% glycerol, 0.1 ug poly(dI-dC) per; conditions: protein: recombinant; chain copies: 2; label: 6-FAM in EMSA; blunt

With “CTCCTCGTGTGTACCGGCGTCCGGCGACCCGGCGCCCGGATGCCAGTCAACTACGGGTAGGGGGTATCGGGCAACGCGGCACTGAACACCGTTGTCATGTGCCTTGACCTGCGGAAACGTTTCGCAGGTCAGAGTGTTGCGAGGATGCGGAGGGTGCGGCTTCCGCCGTCAGGGGGACCGGTCCGACGGGGCTCGTCCTGACCCTGTGCGAACAACGGCGGACACTGTGCGATGTCCGCGATGCCCGGTCTGGGGGCGCGGTTTGTC (double strand) [zitB promoter 267 bp footprinting probe]” the binding [1] was “binds more weakly” and the binding [2] was “binds”.

B1: znuA zurbox with zitB flanks (4 nt each) (dsDNA)
DNA 1: TCCGCCACATGACAACGGTTTCCAGTGCTGTTG
DNA 2: CAACAGCACTGGAAACCGTTGTCATGTGGCGGA
B1: binds [3].

B2: znuA 33 bp (zurbox site 1) (dsDNA)
DNA 1: TCCGCTTGTTGACAACGGTTTCCATATTTGTTG
DNA 2: CAACAAATATGGAAACCGTTGTCAACAAGCGGA
Work on B2 yielded a Kd [4] of 1200 ± 200 nM and a Kd [5] of 3000 ± 900 nM.

B3: zitB zurbox with znuA flanks (4 nt each) (dsDNA)
DNA 1: CAAGGTTGTTGACAACGGTGTTCATATTCGCGT
DNA 2: ACGCGAATATGAACACCGTTGTCAACAACCTTG
B3: binds [6].

B4: zitB 33 bp (dsDNA)
DNA 1: CAAGGCACATGACAACGGTGTTCAGTGCCGCGT
DNA 2: ACGCGGCACTGAACACCGTTGTCATGTGCCTTG
B4 gave a Kd [7] of 600 ± 100 nM and a Kd [8] of 3900 ± 1000 nM.
